Series [1] can be described thus: Differential scanning calorimetry. In kind it is physicochemical. As for the experimental part:
The influence of different parameters including pH, calcium ions, EDTA, and detergent on thermal stability of the AL protease was investigated by differential scanning calorimetry (DSC). Comparative studies were also performed with Subtilisin Carlsberg. Thermal scans of AL protease (0.3 mg protein/ml) and subtilisin (2.5 mg protein/ml in the presence of 1 mM phenyl-methanesulfonyl fluoride (PMSF); Sigma) were performed by increasing temperature from 25° C. to 95° C. at a scan rate of 1° C. per min on a VP-DSC (MicroCal, Northampton, Mass.). The thermograms were corrected by subtracting the base line, obtained from a blank scan of the no-enzyme solution, and normalized for protein concentration. The unfolding transition of the AL protease was fitted to a two-state model. The Tm (temperature at which heat capacity change is a maximum), the calorimetric (or true) enthalpy ΔHcal (peak area), and van't Hoff (or apparent) enthalpy AHVH (calculated from the shape of thermogram) were calculated using the Origin software provided by MicroCal.
(In DSC, transitions show as peaks or steps in heat flow.)

Series [2] is described as follows: Autolytic degradation by SDS-PAGE. The format is physicochemical. The note with it: incubation at 50° C. up to 24 h; not shown. As to the method: Autolytic degradation of the protease was investigated by SDS-PAGE. The AL protease and Subtilisin Carlsberg were individually incubated in 10 mM Tris-HCl buffer 8 for 24 h at 50° C. Electrophoresis of the enzyme samples taken at different time intervals was performed according to the method of Laemmli, on 12% polyacrylamide gel using a Mini Protean II equipment (Bio-Rad, Richmond, Calif.).

A short description of series [3]: Circular dichroism spectroscopy. In kind it is physicochemical. As to the method: The conformational stability of the AL protease was examined by circular dichroism (CD) spectroscopy and compared with that of Subtilisin Carlsberg (bacterial protease, type VIII; Sigma Chemical Co., St. Louis, USA). The CD spectra of the proteins were obtained on a Jasco spectropolarimeter model J-720, at 25° C. in the far UV range from 195 to 250 nm at a scan rate of 10 nm/min using a sample cell path length of 0.1 cm. The ellipticity values (θ) for every nm wavelength increase were obtained in mdeg directly from the instrument and were recorded online in a computer. An average of 6 scans was calculated and the corresponding no-enzyme spectra were subtracted for each sample.
In general terms: CD spectra are sensitive to the conformation of chiral molecules.

Substrate in series [4]: CCCC(=O)Oc1ccc([N+](=O)[O-])cc1
Put plainly: Assay with synthetic peptide, pNA, AMC, NNap and ester substrates (kinetic parameters). In kind it is biochemical, Nesterenkonia sp. AL. The conditions noted are these: other: substrate marked b (footnote not given), 50 mM Tris-HCl buffer, pH 9.

Series [5] deals with T1, N-succinyl-Ala-Ala-Pro-Phe-p-nitroanilide.
T1 chain: AAPF

For series [6], the target named is T2, N-succinyl-Phe-Leu-Phe thiobenzyl ester.
T2 chain: FLF

Series [7] addresses T3, N-succinyl-Leu-Tyr-7-amino-4-methyl coumarin.
T3 chain: LY

For series [8], the target named is T4, N-succinyl-Ala-Ala-Phe-7-amino-4-methyl coumarin.
T4 chain: AAF

The target in series [9] is T5, N-succinyl-Ala-Ala-Pro-Leu-p-nitroanilide.
T5 chain: AAPL

Series [10] concerns the target T6, N-succinyl-Leu-Leu-Val-Tyr-7-amino-4-methyl coumarin.
T6 chain: LLVY

Where [11] appears, read: 0.1% (w/v) SDS vs untreated, pH 10.0.
[12] abbreviates: untreated, 10 mM glycine-NaOH buffer, pH 10.0 (subtilisin with 1 mM PMSF).
The mark [13] stands for this setting: untreated, 10 mM glycine-NaOH buffer, pH 10.0 (subtilisin with 1 mM PMSF), listed as Subtilisin.

B1: Subtilisin Carlsberg: bacterial protease, type VIII; Sigma; one of the first commercial alkaline proteases (protein, UniProt P00780 106-379, looked up)
Subtilisin Carlsberg: AQTVPYGIPLIKADKVQAQGFKGANVKVAVLDTGIQASHPDLNVVGGASFVAGEAYNTDGNGHGTHVAGTVAALDNTTGVLGVAPSVSLYAVKVLNSSGSGSYSGIVSGIEWATTNGMDVINMSLGGASGSTAMKQAVDNAYAKGVVVVAAAGNSGSSGNTNTIGYPAKYDSVIAVGAVDSNSNRASFSSVGAELEVMAPGAGVYSTYPTNTYATLNGTSMASPHVAGAAALILSKHPNLSASQVRNRLSSTATYLGSSFYYGKGLINVEAAAQ
As to B1, the “Tm on addition of Ca^2+” value in [1] (1 mM PMSF present, pH 10.0) is recorded as “remained unchanged”. In addition, in [1] (10 mM EDTA, 1 mM PMSF present), the “Lowering of Tm” value was found to be 10 °C and the ΔHcal turned out to be 152 kcal/mol. In addition, in series [1] (setting [11]), the “Decrease in Tm” value is 13 °C and the “Decrease in ΔHcal” value came to 59 kcal/mol. In series [1] (0.2% SDS vs 0.1% SDS, pH 10.0), the “Further lowering in Tm” value amounted to 3 °C and the “Further lowering in ΔHcal” value is listed as 41 kcal/mol. Also, in series [1] (+0.1% SDS, pH 10.0), the Tm was found to be 54.5 ± 0.02 °C and the ΔHcal is recorded as 144 ± 0.5 kcal/mol. Also, in [1] (+0.2% SDS, pH 10.0), the Tm worked out at 51.1 ± 0.01 °C and the ΔHcal is on record as 103 ± 0.2 kcal/mol. Further, in [1] (setting [12]), the Tm stood at 67.3 °C and the ΔHcal turned out to be 203 kcal/mol. For the same molecule, in [1] (setting [13]), the Tm was 67.3 ± 0.02 °C and the ΔHcal came to 203 ± 0.9 kcal/mol. Besides, the “Degradation on gel electrophoresis” value in series [2] is recorded as “considerable degradation”. The “Secondary structure in the presence of SDS” value in series [3] (0.1-1% (w/v) SDS, data not shown) is on record as “complete loss of secondary structure”. In addition, the “Secondary structure after incubation” value in [3] (24 h at 50° C., 10 mM glycine-NaOH buffer, pH 10.0) is recorded as “substantial loss of structure”.

B2: AL protease (alkaline protease from Nesterenkonia sp. nov. strain AL, DSM 15380) (protein)
chain: QNPADSPHIGKVFFSTNQGDFVCSANIVASANQSTVATAGHCLHDGNGGQFARNFVFAPAYDYGESEHGVWAAEELVTSAEWANRGDFEHDYAFAVLETKGGTTVQQQVGTASPIAFNQPRGQYYSAYGYPAAAPFNGQELHSCHGTATNDPMGSSTQGIPCNMTGGSSGGPWFLGQGTGGAQNSVNSYGYTFLPDVMFGPYFGSGAQQNYNYAST
With B2, the Michaelis constant (Km) in [4] was 1050 µM; in series [5], 2970 µM; in series [9], 9300 µM; in [10], 15 µM. The catalytic constant (kcat) turned out to be 63.7 s⁻¹ in series [4], 4390 s⁻¹ in [5], 6650 s⁻¹ in [9] and 51.7 s⁻¹ in series [10]. For the same molecule, the kcat/Km in [4] came to 60800 M⁻¹ s⁻¹; in [5], 1.48e+06 M⁻¹ s⁻¹; in series [9], 715000 M⁻¹ s⁻¹; in [10], 3.45e+06 M⁻¹ s⁻¹. Besides, the “specific activity toward synthetic substrate” value in series [6], in [7] and in series [8] was “only able of hydrolysing those substrates at a very low rate when high substrate concentration (10 mM) was used; between 0.002 to 0.008 U/mg” in each case.

As a reminder, the Km is the substrate concentration at which the rate is half of its maximum. In general, kcat refers to the number of substrate molecules converted per active site and unit of time at saturation. One may read the kcat/Km as the turnover number divided by the Michaelis constant.

The values above are taken from patent publication US20060142171A1, “Novel alkaline protease” (priority 2003, published 2006).
